Key:
[1] = biological target: constitutive Corelet construct PPID::FUSn::GFP::FTH1, where PPID=PTB (UniProt P02794)
[2] = biological target: constitutive Corelet construct PPID::FUSn::GFP::FTH1, where PPID=PDZ (UniProt P02794)

In the case of “TKL1 C-terminally tagged with PTB ligand”, the shikimate production [1] is reported as “The case when all four enzymes are recruited through expression with PTB/PDZ tags (+) shows enhanced shikimate production compared to when certain enzymes are removed from the cluster through expression without fusion to PTB/PDZ tag (-)”.
For “TAL1 C-terminally tagged with PDZ ligand”, the shikimate production [2] was “The case when all four enzymes are recruited through expression with PTB/PDZ tags (+) shows enhanced shikimate production compared to when certain enzymes are removed from the cluster through expression without fusion to PTB/PDZ tag (-)”.

— US20230295638
